According to the supplement of paper PMC10065799, “High-throughput profiling of sequence recognition by tyrosine kinases and SH2 domains using bacterial peptide display” (eLife, 2023):

Legend:
[1] = target: FGFR3 (UniProt P22607); assay: phosphorylation enrichment, bacterial display (enrichment ratio); higher = better substrate or ligand; peptides without Tyr show the background
[2] = test system: AncSZ; assay: as above
[3] = target: EPHB2 (UniProt P29323); assay: as above
[4] = target: FGFR1 (UniProt P11362); assay: as above
[5] = target: Fyn (UniProt P06241); assay: as above
[6] = target: Fes (UniProt P07332); assay: as above
[7] = test system: c-Src; assay: as above
[8] = target: MERTK (UniProt Q12866); assay: as above
[9] = target: Jak2 (UniProt O60674); assay: as above
[10] = test system: c-Abl (mouse); assay: as above
[11] = target: Hck (UniProt P08631); assay: as above
[12] = test system: Fer (mouse); assay: as above
[13] = target: EPHB1 (UniProt P54762); assay: as above
[14] = target: SHP2-C SH2; assay: SH2 binding enrichment of the phosphorylated peptide, bacterial display (enrichment ratio); higher = better substrate or ligand; peptides without Tyr show the background
[15] = target: c-Src SH2; assay: as above
[16] = target: Grb2 SH2 (UniProt P62993); assay: as above
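Wherever SH2 binding enrichment of the phosphorylated peptide, bacterial display is given: peptide library displayed on the E. coli surface as eCPX fusions, selected cells deep-sequenced, score is each peptide's frequency after selection divided by its frequency in the input.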
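Wherever phosphorylation enrichment, bacterial display is given: 11-residue human phosphosite peptides and single-mutation variants displayed on the E. coli surface, counted by deep sequencing, each peptide's frequency after selection divided by its frequency in the unselected input library; frequency after pTyr selection over input frequency; kinase dosed for 20-30% of maximal phosphorylation in three min.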

Sequence of Fyn (P06241 whole entry, looked up): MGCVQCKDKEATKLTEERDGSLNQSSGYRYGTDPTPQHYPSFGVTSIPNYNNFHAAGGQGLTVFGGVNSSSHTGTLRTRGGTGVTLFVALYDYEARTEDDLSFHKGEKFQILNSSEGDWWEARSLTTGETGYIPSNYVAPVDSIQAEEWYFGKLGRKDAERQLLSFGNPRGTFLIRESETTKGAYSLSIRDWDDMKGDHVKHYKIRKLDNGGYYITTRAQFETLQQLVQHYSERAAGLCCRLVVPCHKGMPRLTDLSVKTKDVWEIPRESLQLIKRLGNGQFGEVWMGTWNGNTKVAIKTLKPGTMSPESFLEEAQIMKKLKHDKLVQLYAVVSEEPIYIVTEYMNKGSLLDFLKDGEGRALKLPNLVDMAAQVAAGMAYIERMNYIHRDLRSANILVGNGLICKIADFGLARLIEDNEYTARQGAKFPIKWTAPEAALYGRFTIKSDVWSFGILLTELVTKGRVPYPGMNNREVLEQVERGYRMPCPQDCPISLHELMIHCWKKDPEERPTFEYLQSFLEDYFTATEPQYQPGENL
Sequence of EPHB2 (P29323 whole entry, looked up): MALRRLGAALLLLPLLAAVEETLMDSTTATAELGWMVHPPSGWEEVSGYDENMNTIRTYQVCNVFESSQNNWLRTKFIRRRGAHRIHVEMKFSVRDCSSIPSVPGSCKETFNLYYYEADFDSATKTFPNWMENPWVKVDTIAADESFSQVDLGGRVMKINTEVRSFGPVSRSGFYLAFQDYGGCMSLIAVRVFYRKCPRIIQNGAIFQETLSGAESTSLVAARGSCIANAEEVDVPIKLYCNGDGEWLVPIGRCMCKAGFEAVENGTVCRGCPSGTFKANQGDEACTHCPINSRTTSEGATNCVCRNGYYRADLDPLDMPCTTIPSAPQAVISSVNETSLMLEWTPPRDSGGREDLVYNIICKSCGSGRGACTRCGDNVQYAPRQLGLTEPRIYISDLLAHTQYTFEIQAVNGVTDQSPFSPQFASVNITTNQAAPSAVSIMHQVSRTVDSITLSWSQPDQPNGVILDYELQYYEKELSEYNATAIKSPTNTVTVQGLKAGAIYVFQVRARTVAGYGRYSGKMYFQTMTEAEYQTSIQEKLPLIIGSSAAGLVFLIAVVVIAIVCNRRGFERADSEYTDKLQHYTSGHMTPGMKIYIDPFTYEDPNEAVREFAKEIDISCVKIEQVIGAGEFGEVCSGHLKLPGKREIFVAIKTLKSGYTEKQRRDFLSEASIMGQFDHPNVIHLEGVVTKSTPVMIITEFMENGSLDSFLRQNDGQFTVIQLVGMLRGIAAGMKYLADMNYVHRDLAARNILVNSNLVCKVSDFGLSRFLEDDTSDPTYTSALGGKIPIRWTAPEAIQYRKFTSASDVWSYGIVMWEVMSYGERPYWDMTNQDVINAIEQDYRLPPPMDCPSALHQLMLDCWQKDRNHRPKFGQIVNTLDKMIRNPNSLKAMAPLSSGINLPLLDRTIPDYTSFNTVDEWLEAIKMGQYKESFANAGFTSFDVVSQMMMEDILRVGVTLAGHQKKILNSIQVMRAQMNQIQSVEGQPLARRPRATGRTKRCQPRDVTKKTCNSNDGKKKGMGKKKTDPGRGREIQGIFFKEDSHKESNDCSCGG
Sequence of Fes (P07332 whole entry, looked up): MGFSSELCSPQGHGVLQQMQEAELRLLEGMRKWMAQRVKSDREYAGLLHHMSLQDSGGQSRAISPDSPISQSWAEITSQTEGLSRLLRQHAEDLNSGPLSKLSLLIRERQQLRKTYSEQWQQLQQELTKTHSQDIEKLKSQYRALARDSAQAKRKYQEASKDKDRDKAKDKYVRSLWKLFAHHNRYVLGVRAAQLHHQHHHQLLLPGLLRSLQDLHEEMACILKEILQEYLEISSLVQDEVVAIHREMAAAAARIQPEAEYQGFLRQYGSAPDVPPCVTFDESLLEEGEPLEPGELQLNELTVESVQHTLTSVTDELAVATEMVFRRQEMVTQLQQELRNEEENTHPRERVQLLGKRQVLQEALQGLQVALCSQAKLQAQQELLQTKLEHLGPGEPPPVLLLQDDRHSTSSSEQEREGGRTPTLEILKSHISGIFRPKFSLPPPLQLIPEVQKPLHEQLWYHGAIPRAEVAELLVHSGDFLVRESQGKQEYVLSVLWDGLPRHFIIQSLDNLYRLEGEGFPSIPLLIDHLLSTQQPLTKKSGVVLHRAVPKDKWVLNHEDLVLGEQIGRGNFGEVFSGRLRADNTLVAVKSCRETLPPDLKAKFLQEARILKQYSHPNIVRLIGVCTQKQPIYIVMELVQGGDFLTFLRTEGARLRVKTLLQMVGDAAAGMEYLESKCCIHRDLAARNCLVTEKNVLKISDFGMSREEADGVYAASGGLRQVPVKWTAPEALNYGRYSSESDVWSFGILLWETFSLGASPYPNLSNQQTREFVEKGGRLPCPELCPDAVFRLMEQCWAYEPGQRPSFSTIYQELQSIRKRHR
Sequence of FGFR1 (P11362 whole entry, looked up): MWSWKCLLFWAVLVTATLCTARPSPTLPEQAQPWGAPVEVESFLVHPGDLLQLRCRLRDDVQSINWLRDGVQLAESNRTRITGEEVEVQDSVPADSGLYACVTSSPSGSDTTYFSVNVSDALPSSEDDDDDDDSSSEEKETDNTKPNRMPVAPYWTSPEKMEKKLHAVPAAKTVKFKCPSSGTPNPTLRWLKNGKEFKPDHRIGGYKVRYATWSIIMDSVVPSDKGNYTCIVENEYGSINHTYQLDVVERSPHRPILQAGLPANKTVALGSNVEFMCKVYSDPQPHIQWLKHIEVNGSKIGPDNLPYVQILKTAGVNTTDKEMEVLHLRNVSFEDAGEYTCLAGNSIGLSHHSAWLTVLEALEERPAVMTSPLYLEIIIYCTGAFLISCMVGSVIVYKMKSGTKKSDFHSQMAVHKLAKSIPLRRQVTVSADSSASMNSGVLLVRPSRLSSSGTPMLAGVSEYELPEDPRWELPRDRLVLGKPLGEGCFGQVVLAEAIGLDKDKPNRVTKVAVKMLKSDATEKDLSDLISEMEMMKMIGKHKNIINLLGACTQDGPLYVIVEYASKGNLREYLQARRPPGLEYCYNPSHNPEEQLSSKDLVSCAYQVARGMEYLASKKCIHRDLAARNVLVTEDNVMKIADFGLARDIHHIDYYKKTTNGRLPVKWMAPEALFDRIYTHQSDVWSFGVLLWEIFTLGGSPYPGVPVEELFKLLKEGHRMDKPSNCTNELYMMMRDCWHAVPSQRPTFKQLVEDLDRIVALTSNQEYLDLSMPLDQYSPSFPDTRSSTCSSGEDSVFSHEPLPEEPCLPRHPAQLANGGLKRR
Sequence of Hck (P08631 whole entry, looked up): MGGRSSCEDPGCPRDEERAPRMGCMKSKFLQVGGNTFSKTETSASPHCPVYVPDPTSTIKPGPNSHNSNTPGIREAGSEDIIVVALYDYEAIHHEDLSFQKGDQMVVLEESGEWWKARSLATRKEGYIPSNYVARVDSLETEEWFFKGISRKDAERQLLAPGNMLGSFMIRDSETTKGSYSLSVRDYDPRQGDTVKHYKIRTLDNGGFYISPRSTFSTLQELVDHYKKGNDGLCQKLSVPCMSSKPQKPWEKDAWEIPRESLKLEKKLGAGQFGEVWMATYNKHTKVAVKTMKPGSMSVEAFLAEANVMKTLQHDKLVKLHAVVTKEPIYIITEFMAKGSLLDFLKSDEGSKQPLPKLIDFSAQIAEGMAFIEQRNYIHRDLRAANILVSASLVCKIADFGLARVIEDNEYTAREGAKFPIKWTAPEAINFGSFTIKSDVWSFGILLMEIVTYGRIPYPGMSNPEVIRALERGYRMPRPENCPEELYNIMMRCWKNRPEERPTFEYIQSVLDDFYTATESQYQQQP
Sequence of FGFR3 (P22607 whole entry, looked up): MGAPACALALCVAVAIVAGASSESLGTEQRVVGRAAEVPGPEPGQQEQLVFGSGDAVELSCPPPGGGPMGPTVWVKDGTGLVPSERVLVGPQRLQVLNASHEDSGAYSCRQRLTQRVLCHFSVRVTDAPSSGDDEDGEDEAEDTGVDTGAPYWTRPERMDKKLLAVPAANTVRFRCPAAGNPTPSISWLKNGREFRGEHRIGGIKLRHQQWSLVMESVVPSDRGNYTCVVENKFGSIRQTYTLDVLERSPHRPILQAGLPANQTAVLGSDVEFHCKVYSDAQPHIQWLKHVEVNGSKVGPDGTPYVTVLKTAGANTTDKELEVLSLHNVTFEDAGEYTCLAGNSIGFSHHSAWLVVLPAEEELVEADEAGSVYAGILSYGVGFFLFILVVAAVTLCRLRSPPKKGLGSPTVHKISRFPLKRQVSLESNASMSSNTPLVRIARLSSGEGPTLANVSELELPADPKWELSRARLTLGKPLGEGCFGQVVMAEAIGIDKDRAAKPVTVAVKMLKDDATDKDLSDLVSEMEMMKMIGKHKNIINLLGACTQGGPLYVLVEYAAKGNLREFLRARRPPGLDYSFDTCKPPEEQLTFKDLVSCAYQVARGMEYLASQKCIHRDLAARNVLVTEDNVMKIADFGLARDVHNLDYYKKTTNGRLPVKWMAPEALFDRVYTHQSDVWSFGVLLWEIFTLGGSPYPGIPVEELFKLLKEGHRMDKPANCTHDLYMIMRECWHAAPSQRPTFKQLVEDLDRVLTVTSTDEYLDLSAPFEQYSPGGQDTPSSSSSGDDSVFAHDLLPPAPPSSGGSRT
Sequence of Grb2 SH2 (P62993 whole entry, looked up, the tested form may be a part): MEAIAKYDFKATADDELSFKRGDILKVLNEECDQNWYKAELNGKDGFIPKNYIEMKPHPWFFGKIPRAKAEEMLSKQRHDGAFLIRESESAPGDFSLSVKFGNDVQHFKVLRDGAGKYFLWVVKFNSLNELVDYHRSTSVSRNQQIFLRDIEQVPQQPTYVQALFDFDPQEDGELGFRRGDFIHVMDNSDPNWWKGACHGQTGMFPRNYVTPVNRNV

Row | Sequence | phosphorylation enrichment [1] | phosphorylation enrichment [2] | phosphorylation enrichment [3] | phosphorylation enrichment [4] | phosphorylation enrichment [5] | phosphorylation enrichment [6] | phosphorylation enrichment [7] | phosphorylation enrichment [8] | phosphorylation enrichment [9] | phosphorylation enrichment [10] | phosphorylation enrichment [11] | phosphorylation enrichment [12] | phosphorylation enrichment [13] | SH2 binding enrichment [14] | SH2 binding enrichment [15] | SH2 binding enrichment [16]
1 | DDLEVYLKHPL [SACS_Y3477_L3481P] | 0.735 | 1.53 | 0.625 | 0.643 | 1.26 | 1.31 | 1.85 | 0.562 | 1.32 | 0.842 | 1.73 | 0.558 | 0.871 | 0.592 | 0.341 | 0.604
2 | DDSNPYINVKL [MTHFD1_Y52_L51P] | 0.884 | 1.45 | 0.614 | 0.631 | 0.645 | 1.66 | 0.59 | 0.526 | 1.16 | 0.846 | 0.606 | 1.2 | 0.551 | 0.811 | 0.701 | 1.32
3 | DEEYEYMNRRR [ERBB3_Y1199] | 0.629 | 1.57 | 0.503 | 0.501 | 0.483 | 0.986 | 0.454 | 0.37 | 0.93 | 0.65 | 0.546 | 0.466 | 0.465 | 0.701 | 0.619 | 0.837
4 | DEFLEHRRIVG [FAM221A_Y20_Y20H_YF] | 0.502 | 0.747 | 0.494 | 0.45 | 0.425 | 0.902 | 0.409 | 0.48 | 0.716 | 0.58 | 0.47 | 0.387 | 0.447 | 0.574 | 0.531 | 0.813
5 | DERQPYAHMNG [IGF1R_Y1346] | 0.459 | 0.588 | 0.362 | 0.45 | 0.438 | 0.599 | 0.376 | 0.343 | 0.533 | 0.455 | 0.427 | 0.456 | 0.359 | 0.767 | 1.85 | 0.729
6 | DESEDYRDTVV [CNNM3_Y456] | 1.13 | 1.46 | 0.931 | 0.677 | 0.623 | 1.59 | 0.662 | 0.633 | 1.4 | 0.897 | 0.765 | 0.78 | 0.975 | 0.587 | 0.439 | 0.901
7 | DEWFLYKMRDI [CPS1_Y879_K875E] | 0.878 | 1.25 | 0.585 | 0.503 | 0.486 | 1.56 | 0.816 | 0.4 | 1.63 | 0.935 | 0.615 | 0.586 | 0.751 | 0.829 | 0.417 | 0.653
8 | DEYLEYRRIVG [FAM221A_Y20] | 0.968 | 1.14 | 0.615 | 1.07 | 1.03 | 0.881 | 1.07 | 0.38 | 0.91 | 0.859 | 1.06 | 0.51 | 1.12 | 0.762 | 0.547 | 1.03
9 | DFPGIYSGYDD [POLR1C_Y33_N32I] | 0.696 | 1.09 | 0.652 | 0.485 | 6.48 | 1.05 | 5.19 | 0.565 | 0.946 | 0.796 | 3.4 | 0.687 | 0.627 | 1 | 1.44 | 0.835
10 | DFSLKYATDIP [APC_Y1183_YF] | 0.668 | 0.914 | 0.619 | 0.592 | 0.524 | 1.08 | 0.378 | 0.374 | 0.897 | 0.572 | 0.47 | 0.536 | 0.606 | 0.737 | 0.457 | 0.781
11 | DGMADYSDPSY [CDC5L_Y459] | 0.686 | 1.43 | 1.71 | 0.611 | 0.571 | 1.3 | 0.538 | 0.496 | 1.47 | 0.859 | 0.487 | 0.486 | 1.33 | 0.616 | 0.459 | 0.833
12 | DGNIDYAEFAK [MCFD2_Y138_Y135N] | 0.62 | 1.24 | 0.545 | 0.595 | 0.804 | 1.2 | 0.646 | 0.51 | 0.987 | 0.757 | 0.673 | 0.445 | 0.498 | 1.04 | 0.443 | 0.801
13 | DGTGHYLCNAC [GATA5_Y208] | 0.416 | 0.625 | 0.445 | 0.456 | 0.396 | 0.763 | 0.421 | 0.398 | 0.681 | 0.595 | 0.45 | 0.458 | 0.61 | 0.658 | 0.45 | 0.83
14 | DGTGHYLGNAC [GATA5_Y208_C210G] | 0.474 | 0.624 | 0.456 | 0.421 | 0.347 | 0.727 | 0.311 | 0.357 | 0.548 | 0.554 | 0.399 | 0.4 | 0.471 | 0.561 | 0.492 | 0.966
15 | DKVFTYIFIME [SCN4A_Y1074] | 1.14 | 1.32 | 0.695 | 0.54 | 0.41 | 1.53 | 0.533 | 0.41 | 1.35 | 0.968 | 0.575 | 0.658 | 0.645 | 0.58 | 0.469 | 0.813
16 | DLAGRYFALKS [CKB_Y173_YF] | 0.613 | 0.633 | 0.574 | 0.412 | 0.433 | 0.848 | 0.545 | 0.558 | 1.57 | 1.49 | 0.453 | 0.37 | 0.487 | 0.688 | 0.585 | 1.38
17 | DLDTDYGSGFP [RNASEH2A_Y206_YF] | 0.588 | 1.22 | 0.443 | 0.447 | 0.45 | 0.978 | 0.511 | 0.38 | 0.979 | 0.673 | 0.49 | 0.465 | 0.585 | 0.592 | 0.404 | 0.589
18 | DLSEVYKPCRK [CCDC93_Y176_R179C] | 0.668 | 0.847 | 0.532 | 0.53 | 0.451 | 0.935 | 0.405 | 0.419 | 0.829 | 0.729 | 0.506 | 0.453 | 0.483 | 0.853 | 0.528 | 0.963
19 | DMDATYRPMFS [JUP_Y701_YF] | 0.649 | 0.831 | 0.448 | 0.498 | 0.592 | 0.99 | 0.624 | 0.461 | 0.752 | 0.763 | 0.762 | 0.465 | 0.52 | 0.886 | 0.472 | 0.762
20 | DNEALYDTCFR [TUBB2B_Y208_I210T] | 0.888 | 2.34 | 2.71 | 0.61 | 6.81 | 1.49 | 5.2 | 6.63 | 1.23 | 2.25 | 6.09 | 8.38 | 2.85 | 0.456 | 0.56 | 0.725
21 | DNKALYDICFR [TUBB3_Y208_E205K] | 0.853 | 1.38 | 2.23 | 0.612 | 2.6 | 1.26 | 3.21 | 7.18 | 1.18 | 1.41 | 4.34 | 4.5 | 2.95 | 0.641 | 0.541 | 0.739
22 | DNLSNYVFQGQ [GRIN2A_Y978_N976S] | 0.611 | 0.71 | 1.22 | 0.571 | 0.475 | 0.796 | 0.454 | 0.618 | 0.783 | 0.546 | 0.41 | 0.416 | 2.09 | 0.818 | 0.601 | 0.904
23 | DPADRYLTEQY [CDKL5_Y286_C291Y] | 0.597 | 0.899 | 0.487 | 0.454 | 0.478 | 1.15 | 0.477 | 0.402 | 0.965 | 0.806 | 0.497 | 0.39 | 0.398 | 0.944 | 0.429 | 1
24 | DQLVKHGVNPG [TMPO_Y127_Y127H] | 0.377 | 0.47 | 0.304 | 0.329 | 0.308 | 0.467 | 0.346 | 0.344 | 0.479 | 0.421 | 0.386 | 0.284 | 0.347 | 0.702 | 0.457 | 0.669
25 | DQVEQYNKELE [LMNA_Y259_K260N] | 0.762 | 1.09 | 0.672 | 0.552 | 0.558 | 1.23 | 0.459 | 0.418 | 1.17 | 0.692 | 0.581 | 0.494 | 0.683 | 0.81 | 0.441 | 0.882
26 | DRFDNYIEKVR [DES_Y122_A120D] | 0.604 | 0.709 | 0.433 | 0.539 | 0.432 | 0.774 | 0.421 | 0.406 | 0.755 | 0.583 | 0.413 | 0.408 | 0.348 | 0.596 | 0.507 | 0.836
27 | DRIVNYSRASV [ATP7A_Y1459_I1464V] | 0.535 | 0.702 | 0.438 | 0.467 | 0.423 | 0.79 | 0.468 | 0.574 | 0.732 | 0.563 | 0.45 | 0.449 | 0.482 | 0.706 | 0.533 | 0.766
28 | DRKRQYELLKL [KIF4B_Y684] | 0.576 | 0.682 | 0.462 | 0.331 | 0.392 | 0.758 | 0.395 | 0.4 | 0.876 | 0.545 | 0.488 | 0.421 | 0.44 | 1.04 | 1.49 | 1.17
29 | DRPASYLDKVR [KRT17_Y98_L95P] | 0.456 | 0.674 | 0.396 | 0.465 | 0.398 | 0.636 | 0.474 | 0.51 | 0.556 | 0.624 | 0.432 | 0.405 | 0.446 | 0.664 | 0.502 | 0.828
